The record followed here is paper PMC3040281 (Biochemistry, 2011).

For one data set, the target named is T1, YghU (Escherichia coli, UniProt Q46845).
T1 sequence (Q46845 1-288): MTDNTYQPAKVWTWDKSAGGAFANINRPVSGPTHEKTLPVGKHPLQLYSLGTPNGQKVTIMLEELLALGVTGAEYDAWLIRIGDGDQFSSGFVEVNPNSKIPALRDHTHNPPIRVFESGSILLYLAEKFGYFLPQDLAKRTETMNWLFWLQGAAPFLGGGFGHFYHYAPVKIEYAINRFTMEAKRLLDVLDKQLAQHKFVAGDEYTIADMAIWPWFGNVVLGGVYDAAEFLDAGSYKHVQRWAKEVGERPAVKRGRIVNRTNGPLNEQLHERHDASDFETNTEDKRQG
Nature of the data set: intrinsic protein fluorescence titration, single-site fit. The class given is binding.

Substrate in data set [1]: CCCCC[C@@H](/C=C/C=C\C/C=C\C/C=C\CCCC(=O)O)OO
Description: purified protein. The class given is biochemical, Escherichia coli. As to conditions: 3 mM GSH, 100 mM KH2PO4, pH 7.0, 0.005% BSA, 25 °C.

Substrate in data set [2]: CC(C)(OO)c1ccccc1
Description: purified protein. The class given is biochemical, Escherichia coli. As to conditions: GSH co-substrate, 100 mM KH2PO4, pH 7.0, 25 °C.

Substrate in data set [3]: CCCCC[C@@H](/C=C/C=C\CCCCCCCC(=O)O)OO
Nature of the data set: purified protein. It is filed as biochemical, Escherichia coli. The conditions noted are these: GSH co-substrate, 100 mM KH2PO4, pH 7.0, 25 °C.

The data set “SEC” deals with the molecule itself. Description: SEC. For orientation: In gel filtration, larger molecules generally elute earlier.

Usually Kd stands for the equilibrium constant for the complex coming apart. At YghU, `NCCCCNCCCNC(=O)CNC(=O)[C@H](CS)NC(=O)CC[C@H](N)C(=O)O` [GspSH] came in with a Kd of 1000 ± 100 µM.

B1: YghU (enzyme, Escherichia coli K-12, UniProt Q46845 1-288, looked up)
chain: T1 sequence (Q46845 1-288)
As a reminder, the Km is the substrate concentration at which the rate is half of its maximum. By kcat is commonly meant the maximal rate divided by the concentration of active sites. The term kcat/Km denotes the second-order rate constant that governs catalysis at low substrate concentration. As usually defined, the stoichiometry N is a count of units in the complex or per binding partner. Consider B1, for which the Km in the data set “purified protein [1]” was found to be 28 ± 4 µM; in the data set “purified protein [2]”, 16 ± 2 µM; in the data set “purified protein [3]”, 130 ± 30 µM. Also, the kcat in “purified protein [1]” amounted to 0.096 ± 0.004 s⁻¹; in “purified protein [2]”, 0.05 ± 0.001 s⁻¹; in the data set “purified protein [3]” it was 0.19 ± 0.02 s⁻¹. For the same molecule, the figures for the kcat/Km in “purified protein [1]”, in the data set “purified protein [2]” and in the data set “purified protein [3]” were 3400 ± 1500 M⁻¹ s⁻¹, 3500 ± 400 M⁻¹ s⁻¹ and 1500 ± 400 M⁻¹ s⁻¹, respectively. Besides, in “SEC”, the “stoichiometry N” value was 2.
